Experimental data taken from publication PMC9482650, “Quantitative fragmentomics allow affinity mapping of interactomes” (Nature Communications, 2022).

T1: SNTB1, Q13884
T1 sequence (Q13884 107-205, limits assumed, looked up): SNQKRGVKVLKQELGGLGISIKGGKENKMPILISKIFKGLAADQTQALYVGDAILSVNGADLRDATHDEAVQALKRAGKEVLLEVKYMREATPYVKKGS

T2: MPDZ_12, O75970
T2 sequence (O75970 1857-1958, limits assumed, looked up): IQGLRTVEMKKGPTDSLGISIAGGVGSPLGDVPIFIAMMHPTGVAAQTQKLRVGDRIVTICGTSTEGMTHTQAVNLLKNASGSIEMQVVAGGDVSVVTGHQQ

T3: PDZRN3_1, Q9UPQ7
T3 sequence (Q9UPQ7 244-349, limits assumed, looked up): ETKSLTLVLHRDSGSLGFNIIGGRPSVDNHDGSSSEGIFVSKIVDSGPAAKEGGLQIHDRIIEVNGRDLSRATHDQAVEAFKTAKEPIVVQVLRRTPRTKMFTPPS

T4: SNTG2, Q9NY99
T4 sequence (Q9NY99 68-166, limits assumed, looked up): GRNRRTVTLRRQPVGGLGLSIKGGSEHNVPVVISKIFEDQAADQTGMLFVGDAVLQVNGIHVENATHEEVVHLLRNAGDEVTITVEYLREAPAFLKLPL

T5: RADIL, Q96JH8
T5 sequence (Q96JH8 971-1071, limits assumed, looked up): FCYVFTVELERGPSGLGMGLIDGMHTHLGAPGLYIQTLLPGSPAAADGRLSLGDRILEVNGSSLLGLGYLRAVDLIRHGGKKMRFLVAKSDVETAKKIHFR

T6: GRIP1_2, Q9Y3R0
T6 sequence (Q9Y3R0 145-248, limits assumed, looked up): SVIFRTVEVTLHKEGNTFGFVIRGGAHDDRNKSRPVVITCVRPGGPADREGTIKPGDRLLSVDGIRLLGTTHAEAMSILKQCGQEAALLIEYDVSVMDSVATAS

T7: GRIP1_3, Q9Y3R0
T7 sequence (Q9Y3R0 247-346, limits assumed, looked up): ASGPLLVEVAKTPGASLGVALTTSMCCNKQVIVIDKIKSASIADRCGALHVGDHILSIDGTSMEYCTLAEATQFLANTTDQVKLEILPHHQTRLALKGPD

T8: ARHGEF11, O15085
T8 sequence (O15085 42-136, limits assumed, looked up): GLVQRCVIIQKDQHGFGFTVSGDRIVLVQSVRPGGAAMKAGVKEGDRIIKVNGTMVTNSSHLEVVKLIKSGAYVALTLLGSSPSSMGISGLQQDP

T9: PTPN13_1, Q12923
T9 sequence (Q12923 1088-1188, limits assumed, looked up): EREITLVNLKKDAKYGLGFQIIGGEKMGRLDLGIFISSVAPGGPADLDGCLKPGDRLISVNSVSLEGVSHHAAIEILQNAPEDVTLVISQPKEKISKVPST

T10: RHPN1, Q8TCX5
T10 sequence (Q8TCX5 508-602, limits assumed, looked up): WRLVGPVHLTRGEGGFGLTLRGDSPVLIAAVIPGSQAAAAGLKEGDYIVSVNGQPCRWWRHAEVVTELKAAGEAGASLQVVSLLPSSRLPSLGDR

T11: APBA1_2, Q02410
T11 sequence (Q02410 742-832, limits assumed, looked up): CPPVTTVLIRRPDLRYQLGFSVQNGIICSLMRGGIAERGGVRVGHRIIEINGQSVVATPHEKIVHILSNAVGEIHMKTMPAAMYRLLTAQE

T12: LRRC7, Q96NW7
T12 sequence (Q96NW7 1440-1537, limits assumed, looked up): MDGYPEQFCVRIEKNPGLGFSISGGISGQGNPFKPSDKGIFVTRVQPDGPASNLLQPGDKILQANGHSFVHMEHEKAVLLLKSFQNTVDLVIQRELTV


Tests used:
Assay in all cases: holdup assay
Set-up in all cases: key: below the threshold = too weak to quantify, mostly under pKd 3.1 to 4
Conditions in all cases: plain residues with an end cap or a label only (N-terminal biotin on a linker: ado-ado)
Inadl_10, Q8NI35 = target: Inadl_10, Q8NI35
Sequence of Inadl_10, Q8NI35 (Q8NI35 1673-1763): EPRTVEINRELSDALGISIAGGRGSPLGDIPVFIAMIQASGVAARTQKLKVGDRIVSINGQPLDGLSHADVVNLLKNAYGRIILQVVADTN

DLG2_2, Q15700 = target: DLG2_2, Q15700
Sequence of DLG2_2, Q15700 (Q15700 189-283): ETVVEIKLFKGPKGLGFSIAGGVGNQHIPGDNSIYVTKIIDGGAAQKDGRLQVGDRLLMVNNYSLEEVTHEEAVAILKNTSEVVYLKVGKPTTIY

SNTB1, Q13884 = target: T1, SNTB1, Q13884
SCRIB_3, Q14160 = target: SCRIB_3, Q14160
Sequence of SCRIB_3, Q14160 (Q14160 999-1103): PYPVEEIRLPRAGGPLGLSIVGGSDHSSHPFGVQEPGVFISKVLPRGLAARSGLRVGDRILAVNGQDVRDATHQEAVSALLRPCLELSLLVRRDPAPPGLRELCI

MPDZ_12, O75970 = target: T2, MPDZ_12, O75970
MAGI2_5, Q86UL8 = target: MAGI2_5, Q86UL8
Sequence of MAGI2_5, Q86UL8 (Q86UL8 915-1017): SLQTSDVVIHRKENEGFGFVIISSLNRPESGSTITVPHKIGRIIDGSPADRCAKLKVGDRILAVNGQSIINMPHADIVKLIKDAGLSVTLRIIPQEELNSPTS

DLG5_1, Q8TDM6 = target: DLG5_1, Q8TDM6
Sequence of DLG5_1, Q8TDM6 (Q8TDM6 617-713): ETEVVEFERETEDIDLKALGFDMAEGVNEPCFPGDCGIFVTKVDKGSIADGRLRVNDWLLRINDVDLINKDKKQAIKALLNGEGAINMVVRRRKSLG

DLG1_1, Q12959 = target: DLG1_1, Q12959
PDZRN3_1, Q9UPQ7 = target: T3, PDZRN3_1, Q9UPQ7
ARHGEF12, Q9NZN5-2 = target: ARHGEF12, Q9NZN5-2
Sequence of ARHGEF12, Q9NZN5-2 (Q9NZN5 other isoform, or with tags, fused parts or gaps): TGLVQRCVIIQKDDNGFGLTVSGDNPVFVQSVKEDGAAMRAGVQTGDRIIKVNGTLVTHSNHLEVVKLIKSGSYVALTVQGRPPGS

PARD3_3, Q8TEW0 = target: PARD3_3, Q8TEW0
Sequence of PARD3_3, Q8TEW0 (Q8TEW0 582-685): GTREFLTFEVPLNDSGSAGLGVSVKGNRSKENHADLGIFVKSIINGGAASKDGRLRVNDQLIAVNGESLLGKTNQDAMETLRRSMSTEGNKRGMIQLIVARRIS

CASK, O14936 = target: CASK, O14936
Sequence of CASK, O14936 (O14936 487-570): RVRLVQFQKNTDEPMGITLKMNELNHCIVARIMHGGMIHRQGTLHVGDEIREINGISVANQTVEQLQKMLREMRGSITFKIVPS

SNTG2, Q9NY99 = target: T4, SNTG2, Q9NY99
RADIL, Q96JH8 = target: T5, RADIL, Q96JH8
DLG4_2, P78352 = target: DLG4_2, P78352
Sequence of DLG4_2, P78352 (P78352 155-259): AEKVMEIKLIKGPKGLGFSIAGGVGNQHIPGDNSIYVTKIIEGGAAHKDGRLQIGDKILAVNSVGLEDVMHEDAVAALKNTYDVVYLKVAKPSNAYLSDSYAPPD

GRIP1_2, Q9Y3R0 = target: T6, GRIP1_2, Q9Y3R0
GRIP1_3, Q9Y3R0 = target: T7, GRIP1_3, Q9Y3R0
SCRIB_1, Q14160 = target: SCRIB_1, Q14160
Sequence of SCRIB_1, Q14160 (Q14160 718-814): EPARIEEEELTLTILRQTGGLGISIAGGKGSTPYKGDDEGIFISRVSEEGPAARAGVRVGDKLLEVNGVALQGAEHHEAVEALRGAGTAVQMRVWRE

NHERF4_2, Q86UT5 = target: NHERF4_2, Q86UT5
Sequence of NHERF4_2, Q86UT5 (Q86UT5 220-308): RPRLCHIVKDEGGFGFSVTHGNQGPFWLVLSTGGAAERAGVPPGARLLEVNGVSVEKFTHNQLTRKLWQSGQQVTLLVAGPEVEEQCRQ

ARHGEF11, O15085 = target: T8, ARHGEF11, O15085
Inadl_4, Q8NI35 = target: Inadl_4, Q8NI35
Sequence of Inadl_4, Q8NI35 (Q8NI35 547-651): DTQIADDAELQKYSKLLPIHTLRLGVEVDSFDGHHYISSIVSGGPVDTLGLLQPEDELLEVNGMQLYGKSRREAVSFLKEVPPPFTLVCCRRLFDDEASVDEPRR

MAGI2_3, Q86UL8 = target: MAGI2_3, Q86UL8
Sequence of MAGI2_3, Q86UL8 (Q86UL8 600-682): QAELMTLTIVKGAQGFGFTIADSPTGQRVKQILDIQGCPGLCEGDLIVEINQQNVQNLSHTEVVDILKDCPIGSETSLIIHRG

PTPN13_1, Q12923 = target: T9, PTPN13_1, Q12923
RHPN1, Q8TCX5 = target: T10, RHPN1, Q8TCX5
APBA1_2, Q02410 = target: T11, APBA1_2, Q02410
LRRC7, Q96NW7 = target: T12, LRRC7, Q96NW7

Row | pKd (Inadl_10, Q8NI35) | pKd (DLG2_2, Q15700) | pKd (SNTB1, Q13884) | pKd (SCRIB_3, Q14160) | pKd (MPDZ_12, O75970) | pKd (MAGI2_5, Q86UL8) | pKd (DLG5_1, Q8TDM6) | pKd (DLG1_1, Q12959) | pKd (PDZRN3_1, Q9UPQ7) | pKd (ARHGEF12, Q9NZN5-2) | pKd (PARD3_3, Q8TEW0) | pKd (CASK, O14936) | pKd (SNTG2, Q9NY99) | pKd (RADIL, Q96JH8) | pKd (DLG4_2, P78352) | pKd (GRIP1_2, Q9Y3R0) | pKd (GRIP1_3, Q9Y3R0) | pKd (SCRIB_1, Q14160) | pKd (NHERF4_2, Q86UT5) | pKd (ARHGEF11, O15085) | Binder | further results
1 | 3.84 | 5.24 | 3.64 | 3.59 | 3.77 | 4.51 | below the threshold | 4.92 | below the threshold | 4.62 | below the threshold | below the threshold | 3.66 | 4.15 | 5.22 | below the threshold | below the threshold | 3.98 | below the threshold | 4.71 | SGSLKLMTTV [DACT1, Q9NYF0] | pKd (Inadl_4, Q8NI35): below the threshold; pKd (MAGI2_3, Q86UL8): below the threshold; pKd (PTPN13_1, Q12923): below the threshold; pKd (RHPN1, Q8TCX5): 4.58; pKd (APBA1_2, Q02410): 3.5; pKd (LRRC7, Q96NW7): below the threshold
2 | below the threshold | below the threshold | below the threshold | 3.75 | below the threshold | below the threshold | below the threshold | below the threshold | below the threshold | below the threshold | 3.85 | below the threshold | below the threshold | below the threshold | below the threshold | below the threshold | below the threshold | below the threshold | below the threshold | below the threshold | LKVPPEERLI [CRB2, Q5IJ48] | pKd (Inadl_4, Q8NI35): below the threshold; pKd (MAGI2_3, Q86UL8): below the threshold; pKd (PTPN13_1, Q12923): below the threshold; pKd (RHPN1, Q8TCX5): below the threshold; pKd (APBA1_2, Q02410): below the threshold; pKd (LRRC7, Q96NW7): below the threshold
3 | below the threshold | below the threshold | 3.57 | below the threshold | below the threshold | 3.61 | below the threshold | below the threshold | below the threshold | below the threshold | below the threshold | below the threshold | 3.61 | 4.22 | 3.55 | below the threshold | below the threshold | below the threshold | below the threshold | below the threshold | YRLAQESGLV [ABCC6, O95255] | pKd (Inadl_4, Q8NI35): below the threshold; pKd (MAGI2_3, Q86UL8): below the threshold; pKd (PTPN13_1, Q12923): below the threshold; pKd (RHPN1, Q8TCX5): below the threshold; pKd (APBA1_2, Q02410): below the threshold; pKd (LRRC7, Q96NW7): below the threshold
4 | below the threshold | 4.07 | 4.8 | 4.34 | below the threshold | below the threshold | below the threshold | 3.91 | below the threshold | 3.84 | 4.35 | below the threshold | 4.15 | below the threshold | 4.05 | below the threshold | below the threshold | 4.24 | below the threshold | below the threshold | ETQVTAETVI [TMEM225B, P0DP42] | pKd (Inadl_4, Q8NI35): below the threshold; pKd (MAGI2_3, Q86UL8): below the threshold; pKd (PTPN13_1, Q12923): below the threshold; pKd (RHPN1, Q8TCX5): 4.44; pKd (APBA1_2, Q02410): below the threshold; pKd (LRRC7, Q96NW7): below the threshold
